The Human Domainome abundance scans (Beltran et al. 2025)

B1: Ubiquitin-protein ligase residues 30 to 86; numbered along this chain, Q05086 (parent)
chain: KHLIERYYHQLTEGCGNEACTNEFCASCPTFLRMDNNAAAIKALELYKINAKLCDPH
B2: Zinc finger homeobox protein 4, residues 2086 to 2141; numbered along this chain, Q86UP3 (parent)
chain: RPRTRITDDQLKILRAYFDINNSPSEEQIQEMAEKSGLSQKVIKHWFRNTLFKERQ

Variants of: B1
Assay: abundance fitness (aPCA) (normalised: wild type 0, dead -1); higher = more abundant; growth selection in yeast, the domain comes from the species named
Settings: Homo sapiens

Abundance fitness, by site and new letter:
D55: N 0.017; K 0.056; L -0.027
A39: G -0.084; F -0.249; R -0.053
L11: R -0.872; G -0.681

Variants of: B2
Assay: as above
Settings: Homo sapiens

Abundance fitness of substitutions, site by site:
R5: N 0.184; C 0.136; Y 0.082; D 0.198; V 0.022; M 0.16; Q 0.183; I 0.067; K 0.191; L 0.207; E 0.163; T 0.182; P 0.172; W -0.184; F 0.058; G -0.037
T7: W -0.774; R -0.054; C -0.337; P -0.241; E 0.082; L -0.271; H -0.344; K -0.344; M 0.038; Y -0.491; D 0.174; Q -0.42; A 0.02; F -0.352; I -0.288; N -0.038; S -0.125; V -0.217
D9: R -0.134; W -0.155; K -0.087; I -0.026; S 0.084; N 0.047; M -0.084; A 0.059; T 0.165; G -0.14; P -0.002; E -0.003; C -0.011; V -0.162; Q -0.083; F 0.071; L -0.043; H 0.044; Y -0.041
R1: V -0.21; Y -0.157; M -0.634; N 0.247; A -0.327; H -0.211; S -0.284; K -0.891; L -0.101; T -0.131; D 0.188; F -0.327; W -1.13; P -0.512; C -0.033; I -0.116
T4: Q -0.284; I -0.048; E -0.096; A -0.271; H 0.01; C -0.965; S -0.198; V -0.116; W -1.16; N 0.123; L -0.011; P -0.139; K -0.329; R -0.413; M 0.224; F 0.036
R3: N -0.033; C -0.343; D 0.015; E 0.054; T 0.102; M 0.216; P -0.096; Y 0.026; V -0.037; I -0.136; K -0.011; L -0.024; H 0.042; Q 0.201; F -0.15; W -0.569; S 0.071; G 0.099
P2: G 0.048; V 0.067; I -0.067; C -0.844; L -0.047; R -0.083; W -1.01; T 0.049; D 0.033; F 0.157; A -0.134; N 0.18; Y 0.022; H 0.187; M 0.143; S 0.057; Q 0.173; K 0.197
I6: V -0.04; N -0.377; L 0.006; K -0.433; E -0.18; M 0.369; P -0.103; Q -0.389; C -0.318; W -0.553; T -0.246; D -0.148; G -0.381; R -0.596; Y -0.047; A -0.069; S -0.245; H -0.271; F 0.002
D8: R -0.183; V -0.015; L -0.127; M 0.113; C 0.046; H -0.019; T -0.172; N -0.28; W -0.092; E 0.145; G -0.004; Q 0.081; Y -0.238; K 0.012; A -0.051; I 0.036; S 0.023; P 0.034; F -0.056
